Experimental data reported in patent US20210388102A1 (IMMUNOGEN, published 2021).
Blank lines part the entries; values can stand above or below the binder they belong to.

Experiments:
[1] = target: T1, human ADAM9 (huADAM9) on cells (human, UniProt Q13443 206-819); assay: cell-based or functional assay
T1 sequence: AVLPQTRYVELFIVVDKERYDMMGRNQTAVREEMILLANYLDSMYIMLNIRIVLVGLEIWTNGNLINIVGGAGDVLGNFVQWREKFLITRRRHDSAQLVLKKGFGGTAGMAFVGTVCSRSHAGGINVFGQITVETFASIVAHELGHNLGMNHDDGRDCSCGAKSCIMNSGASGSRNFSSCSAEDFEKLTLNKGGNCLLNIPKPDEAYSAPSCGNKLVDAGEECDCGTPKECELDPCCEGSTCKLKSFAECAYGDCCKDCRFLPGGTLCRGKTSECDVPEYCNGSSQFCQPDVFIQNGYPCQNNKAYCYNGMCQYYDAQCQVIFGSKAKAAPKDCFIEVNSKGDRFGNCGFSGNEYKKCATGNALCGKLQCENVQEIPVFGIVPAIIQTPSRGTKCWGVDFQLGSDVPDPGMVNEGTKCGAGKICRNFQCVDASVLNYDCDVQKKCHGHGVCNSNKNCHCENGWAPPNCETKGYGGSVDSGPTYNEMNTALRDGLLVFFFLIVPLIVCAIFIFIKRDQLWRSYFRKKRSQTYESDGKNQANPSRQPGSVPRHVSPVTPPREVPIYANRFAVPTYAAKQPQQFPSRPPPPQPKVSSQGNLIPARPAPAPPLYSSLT

[2] = target: T1, human ADAM9 (huADAM9) on cells; assay: FACS, 300-19 cells expressing human ADAM9
[3] = target: T2, cynomolgus monkey ADAM9 (cynoADAM9) on cells (cynomolgus monkey, UniProt Q13443 206-819 (human entry)); assay: FACS, 300-19 cells expressing cynomolgus ADAM9
T2 construct: also called Cho-K/cynoADAM9 clone 2; Cho-K/cynoADAM9 clone #16
T2 chain: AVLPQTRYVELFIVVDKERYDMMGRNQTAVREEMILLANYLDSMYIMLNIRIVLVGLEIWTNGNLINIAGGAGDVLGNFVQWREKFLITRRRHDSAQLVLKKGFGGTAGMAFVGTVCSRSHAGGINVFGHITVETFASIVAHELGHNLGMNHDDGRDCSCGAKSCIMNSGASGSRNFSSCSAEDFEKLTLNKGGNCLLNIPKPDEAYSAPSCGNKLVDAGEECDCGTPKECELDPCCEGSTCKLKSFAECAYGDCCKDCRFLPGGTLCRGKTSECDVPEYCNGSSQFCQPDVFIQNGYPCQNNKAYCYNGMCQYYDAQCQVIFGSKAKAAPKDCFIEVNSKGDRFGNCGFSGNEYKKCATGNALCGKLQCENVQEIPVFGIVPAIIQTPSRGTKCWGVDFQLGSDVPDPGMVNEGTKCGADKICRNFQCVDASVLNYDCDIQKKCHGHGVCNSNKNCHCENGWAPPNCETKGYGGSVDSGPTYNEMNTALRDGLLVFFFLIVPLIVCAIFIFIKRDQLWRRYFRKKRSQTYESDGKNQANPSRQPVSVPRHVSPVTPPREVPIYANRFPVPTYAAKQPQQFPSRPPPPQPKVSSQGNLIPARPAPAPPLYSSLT
Procedure: (§1) To evaluate the consequence of conjugation on antigen binding, the relative binding affinity of each anti-ADAM9 immunoconjugate and its respective unconjugated antibody to ADAM9 was determined by FACS analysis on 300-19 cells ectopically-expressing either human ADAM9 or cynomolgus ADAM9. Briefly, the ADAM9-expressing 300-19 cells were incubated with dilution series of anti-ADAM9 antibodies or immunoconjugates for 30 min @ 4° C. in FACS buffer (PBS, 0.1% BSA, 0.01% NaN₃), Samples were then washed and incubated with fluorescently-labeled secondary antibody for 30 minutes at 4° C. The normalized mean of fluorescence intensity at each concentration was plotted and the EC50 of binding was calculated using a nonlinear regression analysis (GraphPad Prims 4.0).

[4] = target: T2, cynomolgus monkey ADAM9 (cynoADAM9) on …; assay: FACS, EC50 on 300-19 cynoADAM9 cells over EC50 on 300-19 huADAM9 cells
Procedure: as §1

[5] = target: T3, His-tagged soluble human ADAM9 (shADAM9-His) (human, UniProt Q13443 206-697); assay: SPR (BIACORE), antibody captured on anti-human Fc, shADAM9-His 6.25-100 nM, 1:1 Langmuir
T3 construct: Contains an extracellular portion of human ADAM9; also called huADAM9-His; His peptide-tagged soluble huADAM9
T3 sequence: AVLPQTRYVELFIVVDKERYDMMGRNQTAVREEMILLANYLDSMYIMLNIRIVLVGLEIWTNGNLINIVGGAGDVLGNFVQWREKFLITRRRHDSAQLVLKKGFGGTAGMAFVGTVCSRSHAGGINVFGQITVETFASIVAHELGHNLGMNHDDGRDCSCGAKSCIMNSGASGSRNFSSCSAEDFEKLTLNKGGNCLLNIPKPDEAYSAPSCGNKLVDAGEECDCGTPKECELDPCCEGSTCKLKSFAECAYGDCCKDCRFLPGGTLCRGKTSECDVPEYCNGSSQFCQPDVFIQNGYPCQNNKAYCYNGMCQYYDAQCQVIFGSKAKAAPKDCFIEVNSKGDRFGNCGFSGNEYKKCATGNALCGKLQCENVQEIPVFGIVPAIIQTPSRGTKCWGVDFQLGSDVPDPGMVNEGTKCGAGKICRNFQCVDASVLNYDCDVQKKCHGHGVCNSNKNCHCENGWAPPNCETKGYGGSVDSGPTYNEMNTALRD
Procedure: (§2) The kinetics of binding were determined via BIACORE® analysis binding (normalized 1:1 Langmuir binding model).

[6] = target: T3, His-tagged soluble human ADAM9 …; assay: SPR (BIACORE), antibody captured, huADAM9-His in flow
Procedure: as §2

B1: hMAB-A(2I.2)-sSPDB-DM4 (antibody, human IgG1, kappa)
heavy: not shown
light: DIVMTQSPDSLAVSLGERATISCKASQSVDYSGDSYMNWYQQKPGQPPKLLIYAASDLESGIPARFSGSGSGTDFTLTISSLEPEDFATYYCQQSHEDPFTFGQGTKLEIKRTVAAPSVFIFPPSDEQLKSGTASVVCLLNNFYPREAKVQWKVDNALQSGNSQESVTEQDSKDSTYSLSSTLTLSKADYEKHKVYACEVTHQGLSSPVTKSFNRGEC
modifications: lysine-linked DM4, sites not given; DM4 linked through sulfo-SPDB to lysine residues of the antibody, sites not given; average 3.5 mol DM4/mol antibody
Fold-specificity (IC50 control ADC/IC50 anti-ADAM9 ADC), A498 [1]: 30 fold | Fold-specificity (IC50 control ADC/IC50 anti-ADAM9 ADC), DLD-1 [1]: 63 fold | Fold-specificity (IC50 control ADC/IC50 anti-ADAM9 ADC), DU145 [1]: 32 fold | Fold-specificity (IC50 control ADC/IC50 anti-ADAM9 ADC), HPAF2 [1]: 13 fold | Fold-specificity (IC50 control ADC/IC50 anti-ADAM9 ADC), HS578T [1]: 20 fold | Fold-specificity (IC50 control ADC/IC50 anti-ADAM9 ADC), IGROV1 [1]: 8 fold | Fold-specificity (IC50 control ADC/IC50 anti-ADAM9 ADC), KATO III [1]: 11 fold | Fold-specificity (IC50 control ADC/IC50 anti-ADAM9 ADC), NCI-H1703 [1]: 132 fold | In Vitro Cytotoxicity (IC50 nM), A498 [1]: 0.108 nM | In Vitro Cytotoxicity (IC50 nM), DLD-1 [1]: 0.386 nM | In Vitro Cytotoxicity (IC50 nM), DU145 [1]: 0.439 nM | In Vitro Cytotoxicity (IC50 nM), HPAF2 [1]: 0.422 nM | In Vitro Cytotoxicity (IC50 nM), HS578T [1]: 0.094 nM | In Vitro Cytotoxicity (IC50 nM), IGROV1 [1]: 1.41 nM | In Vitro Cytotoxicity (IC50 nM), KATO III [1]: 0.48 nM | In Vitro Cytotoxicity (IC50 nM), NCI-H1703 [1]: 0.028 nM | EC50 [2]: 1.55 nM | EC50 [3]: 4.9 nM | cyno/human (ratio of EC50) [4]: 3

B4: hMAB-A (2.3) (antibody, V domains shown)
VH: EVQLVESGGGLVKPGGSLRLSCAASGFTFSSYWMHWVRQAPGKGLEWVGEIIPIFGHTNYNEKFKSRFTISLDNSKNTLYLQMGSLRAEDTAVYYCARGGYYYYGSRDYFDYWGQGTTVTVSS
VL: DIVMTQSPDSLAVSLGERATISCRASQSVDYSGDSYMNWYQQKPGQPPKLLIYAASDLESGIPARFSGSGSGTDFTLTISSLEPEDFATYYCQQSHEDPFTFGQGTKLEIK
notes: also called hMAB-A VH(2)/hMAB-A VL(3)
Kd [5]: 1.3 nM

B5: hMAB-A (4.4) (antibody, V domains shown)
VH: EVQLVESGGGLVKPGGSLRLSCAASGFTFSSYWIHWVRQAPGKGLEWVGEIIPIFGHTNYNERFQGRFTISLDNSKNTLYLQMGSLRAEDTAVYYCARGGYYYYGSRDYFDYWGQGTTVTVSS
VL: DIVMTQSPDSLAVSLGERATISCRASQSVDYSGDSYLNWYQQKPGQPPKLLIYAASDLESGIPARFSGSGSGTDFTLTISSLEPEDFATYYCQQSYSTPFTFGQGTKLEIK
notes: also called hMAB-A VH(4)/hMAB-A VL(4)
Kd [5]: 2 nM

The next lines start with the values.

EC50 [2]: 0.41 nM | EC50 [3]: 112 nM | cyno/human (ratio of EC50) [4]: 273 | Kd [5]: 3.6 nM
B2: chMAB-A (antibody, V domains shown)
VH: QVQLQQPGAELVKPGASVKLSCKASGYTFTSYWMHWVKQRPGQGLEWIGEIIPINGHTNYNEKFKSKATLTLDKSSSTAYMQLSSLASEDSAVYYCARGGYYYYGSRDYFDYWGQGTTLTVSS
VL: DIVLTQSPASLAVSLGQRATISCKASQSVDYDGDSYMNWYQQIPGQPPKLLIYAASDLESGIPARFSGSGSGTDFTLNIHPVEEEDAATYYCQQSHEDPFTFGGGTKLEIK
notes: also called chimeric version of MAB-A; chimeric chMAB-A

EC50 [2]: 1.22 nM | EC50 [3]: 3.8 nM | Kd [6]: 1.4 nM | koff [6]: 0.00081 s⁻¹ | kon [6]: 590000 M⁻¹ s⁻¹ | cyno/human (ratio of EC50) [4]: 3
B3: hMAB-A (2C.2) (antibody, human IgG1, kappa, V domains shown)
VH: EVQLVESGGGLVKPGGSLRLSCAASGFTFSSYWMHWVRQAPGKGLEWVGEIIPIFGHTNYNEKFKSRFTISLDNSKNTLYLQMGSLRAEDTAVYYCARGGYYYYPRFGWLDYWGQGTTVTVSS
VL: DIVMTQSPDSLAVSLGERATISCKASQSVDYSGDSYMNWYQQKPGQPPKLLIYAASDLESGIPARFSGSGSGTDFTLTISSLEPEDFATYYCQQSHEDPFTFGQGTKLEIKR
notes: IgG1 kappa; also called MAB-A VH(2C); MAB-A VH(2C.2)
